Substrate in this data set: CCCCCCCCCCCCCCCC(=O)Oc1ccc([N+](=O)[O-])cc1
Put plainly: purified protein. Format: biochemical, Thermomyces lanuginosus. Particulars: free enzyme, 50 mM Tris pH 9.0, 60 °C, 10-60 mM substrate, Triton X-100 and gum acacia in assay buffer.

B1: Thermomyces lanuginosus lipase (Thermomyces lanuginosus) (protein)
chain: EVSQDLFNQFNLFAQYSAAAYCGKNNDAPAGTNITCTGNACPEVEKADATFLYSFEDSGVGDVTGFLALDNTNKLIVLSFRGSRSIENWIGNLNFDLKEINDICSGCRGHDGFTSSWRSVADTLRQKVEDAVREHPDYRVVFTGHSLGGALATVAGADLRGNGYDIDVFSYGAPRVGNRAFAEFLTVQTGGTLYRITHTNDIVPRLPPREFGYSHSSPEYWIKSGTLVPVTRNDIVKIEGIDATGGNNQPNIPDIPAHLWYFGLIGTCL
notes: free enzyme
For orientation: Km means the substrate concentration at which the rate is half of its maximum. In general, Vmax refers to the rate approached at saturating substrate. B1: the Michaelis constant (Km) worked out at 3.1 mM and the maximal velocity (Vmax) came out at 20.1 µmol/min/mg.

For the origin of these results see publication PMC3772012, “Enzyme Immobilisation on Amino-Functionalised Multi-Walled Carbon Nanotubes: Structural and Biocatalytic Characterisation” (PLoS ONE, 2013).
